# Tests used:
# [1] = target: protein zero related (PZR), tyrosine-phosphorylated (human) (UniProt O95297); experiment: immuno-depletion of extracts of pervanadate-treated cells with anti-PZR, Western blot of the supernatants
# [2] = target: protein zero related (PZR), tyrosine-phosphorylated (human) (UniProt O95297); experiment: immuno-depletion of extracts of pervanadate-treated cells with anti-SHP-2, Western blot of the supernatants
# Sequence of protein zero related (PZR), tyrosine-phosphorylated (human) (O95297 36-269 limits assumed): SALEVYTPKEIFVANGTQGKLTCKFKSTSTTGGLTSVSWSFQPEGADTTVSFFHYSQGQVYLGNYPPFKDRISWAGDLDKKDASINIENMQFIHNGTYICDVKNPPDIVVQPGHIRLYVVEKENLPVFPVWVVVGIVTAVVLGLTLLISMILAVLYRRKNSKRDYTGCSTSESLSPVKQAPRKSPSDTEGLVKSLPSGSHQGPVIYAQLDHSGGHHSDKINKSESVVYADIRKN
substance,measurement,setting,value
"tyrosine phosphatase SHP-2, native full-length form (from UniProt Q06124 2-593) (enzyme)",removal of SHP-2 from the extracts on immuno-depletion of PZR,[1],50%
same,loss of PZR from the extracts on immuno-depletion of SHP-2,[2],> 90%

# — patent publication US20030171565A1
